Results taken from patent publication US20090137467A1.
Like-named read-outs stand apart in the source and are kept apart here.

How the values were obtained:
[1] = target: [Asn516]β-RNAP (Escherichia coli)
[2] = target: [Asn516]β-RNAP (Escherichia coli); remark: listed apart in the source
[3] = target: Escherichia coli RNA polymerase (Escherichia coli) (UniProt P0A8T7)

Substance	inhibition of transcription (IC50) [1] [µM]	inhibition of transcription (IC50) [2] [µM]	inhibition of RNAP (IC50) [3] [µM]
{rifamycin SV}-{CH2C(O)NH(CH2)10NHC(O)CH2S(CH2)3C(NH2+)}-{[Lys5]MccJ25} (from UniProt Q9X2V7) (peptide)	95	–	–
{rifamycin SV}-{CH2C(O)NH(CH2)10NHC(O)(CH2)2(C2N3)(CH2)4C(O)}-{[Lys5]microcin J25} (from UniProt Q9X2V7) (peptide)	–	220	–
{rifamycin SV}-{CH2C(O)NH(CH2)6NHC(O)CH2S(CH2)3C(NH2+)}-{[Lys5]MccJ25} (from UniProt Q9X2V7) (peptide)	130	–	–
{rifamycin SV}-{CH2C(O)NH(CH2)8NHC(O)CH2S(CH2)3C(NH2+)}-{[Lys5]MccJ25} (from UniProt Q9X2V7) (peptide)	100	–	–
{rifamycin SV}-{CH2C(O)NH(CH2)12NHC(O)CH2S(CH2)3C(NH2+)}-{[Lys5]microcin J25} (from UniProt Q9X2V7) (peptide)	48	–	0.002
